Laboratory results reported in patent EP4089108A1 (Cytoki Pharma ApS, dated 2022).

T1: human IL-22 receptor (human IL-22Ra and human IL-10Rb) expressed on BHK reporter cells (human, UniProt Q8N6P7 16-574; Q08334 20-325)
T1 sequence (looked up) 1: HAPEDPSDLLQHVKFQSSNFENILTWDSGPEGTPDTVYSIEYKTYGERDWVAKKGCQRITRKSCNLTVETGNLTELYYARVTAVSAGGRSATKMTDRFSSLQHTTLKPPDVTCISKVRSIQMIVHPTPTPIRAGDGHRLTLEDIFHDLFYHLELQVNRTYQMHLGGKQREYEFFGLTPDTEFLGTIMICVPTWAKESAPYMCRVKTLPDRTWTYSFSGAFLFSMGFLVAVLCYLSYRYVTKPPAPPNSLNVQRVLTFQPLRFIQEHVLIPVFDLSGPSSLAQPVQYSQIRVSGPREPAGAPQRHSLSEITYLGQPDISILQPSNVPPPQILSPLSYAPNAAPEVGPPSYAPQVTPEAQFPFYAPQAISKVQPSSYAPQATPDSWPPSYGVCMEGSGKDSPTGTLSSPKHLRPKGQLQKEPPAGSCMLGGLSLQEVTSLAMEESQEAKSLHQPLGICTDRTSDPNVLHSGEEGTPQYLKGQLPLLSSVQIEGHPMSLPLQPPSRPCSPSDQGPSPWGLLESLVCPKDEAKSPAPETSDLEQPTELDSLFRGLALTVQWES
T1 sequence (looked up) 2: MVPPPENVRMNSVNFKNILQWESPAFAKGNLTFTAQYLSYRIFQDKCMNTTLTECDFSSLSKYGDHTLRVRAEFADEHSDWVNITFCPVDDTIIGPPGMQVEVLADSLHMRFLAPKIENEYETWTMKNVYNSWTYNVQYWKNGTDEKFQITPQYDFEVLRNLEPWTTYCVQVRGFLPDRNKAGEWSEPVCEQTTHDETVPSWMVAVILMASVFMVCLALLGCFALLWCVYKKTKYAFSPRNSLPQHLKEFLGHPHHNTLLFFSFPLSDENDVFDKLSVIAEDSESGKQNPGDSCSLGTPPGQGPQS

B1: native mature human IL-22 (ligand)
chain: APISSHCRLDKSNFQQPYITNRTFMLAKEASLADNNTDVRLIGEKLFHGVSMSERCYLMKQVLNFTLEEVLFPQSDRFQPYMQEVVPFLARLSNRLSTCHIEGDDLHIQRNVQKLKDTVKKLGESGEIKAIGELDLLFMSLRNACI
B2: Derivative 1 (ligand)
chain: GPGCPISSHCRLDKSNFQQPYITNRTFMLAKEASLADNNTDVRLIGEKLFHGVSMSERCYLMKQVLNFTLEEVLFPQSDRFQPYMQEVVPFLARLSNRLSTCHIEGDDLHIQRNVQKLKDTVKKLGESGEIKAIGELDLLFMSLRNACI
modifications: C16 monoacid covalently attached through linker γGlu-OEG-OEG-εLys-αAc to Cys at position 1 of hIL-22 numbering (attachment site 1C; position 4 of SEQ ID NO. 20)

Target: T1, human IL-22 receptor (human IL-22Ra and …)
Assay: cell-based or functional assay

Binder | EC50, BHK cell reporter gene assay (luciferase with STAT3-induced promoter) [nM]
B1 | 0.07
B2 | 0.06
